Assay results reported in US20230414780A1 (VECT HORUS, published 2023).

Key:
[1] = target: T1, human TfR ectodomain fused to a mouse IgG1 Fc fragment (human, UniProt P02786 89-760); assay: SPR, kinetic
T1 construct: extracellular domain; ectodomain fused to the N-terminal end of the Fc, made in-house; not shown: mouse IgG1 Fc fragment
Method in brief: (§1)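 TfR–mouse Fc fusions, produced in-house, captured on HC 1500M or CM5 chips either directly or via immobilized anti-mouse IgG. VHHs injected in single-cycle or multiple-cycle kinetic mode on Biacore T200.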

[2] = target: T2, human transferrin receptor (hTfR) fused to EGFP, on CHO cells (human, UniProt P02786 1-760); assay: apparent Kd, flow cytometry, CHO cells
T2 construct: whole, on cells; also called human TfR; CHO-hTfR-EGFP; not shown: EGFP from pEGFP-C1 vector, fused to the N-terminal (intracellular) end of hTfR
Method in brief: (§2)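 CHO cells expressing TfR-EGFP fusions, blocked in PBS/BSA 2%, then incubated with increasing VHH concentrations for 1 hr at 4° C. Bound VHH detected via anti-6His antibody and Alexa647 secondary, cells PFA-fixed, read by flow cytometry. Apparent Kd from nonlinear fit.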

[3] = target: T3, mouse transferrin receptor (mTfR) fused to EGFP, on CHO cells (mouse, UniProt Q62351 1-763); assay: apparent Kd, flow cytometry, CHO cells
T3 construct: whole, on cells; also called mouse TfR; CHO-mTfR-EGFP; not shown: EGFP
Method in brief: as §2

[4] = target: T4, rhesus monkey transferrin receptor (rhTfR) fused to EGFP, on CHO cells (rhesus monkey); assay: apparent Kd, flow cytometry, CHO cells
T4 construct: whole, on cells; also called rhesus monkey TfR
Method in brief: as §2

[5] = target: T5, murine TfR expressed by murine neuroblastoma Neuro-2a cells (mouse, UniProt Q62351 1-763); assay: competition with the fluorescent reference VHH on Neuro-2a cells as in FIG. 25; Ki/app on mTfR, free VHH
T5 construct: whole, on cells; also called mTfR (N2a cells)
Protocol: (§3) The binding of VHH-Oligo and VHH-hFc-Oligo conjugates to mTfR was evaluated using a competition assay on living cells expressing the receptor of interest, namely murine neuroblastoma Neuro-2a cells (N2a). N2a cells were grown in Dulbecco's Modified Eagle Medium (DMEM) GlutaMAX supplemented with 10% v/v FBS in 5% CO₂ at 37° C. Cells were seeded two days before experiments in 96-well plates at a density of 50.000 cells/well. […] Resuspended cells were transferred in a 96-deepwell plate (V-bottom) containing 1% fetal bovine serum (FBS)/0.02% sodium azide in phosphate-buffered saline (PBS) and then centrifuged for 5 min at 2000 rpm at 4° C. After removing the supernatant, 5 mM EDTA in D-PBS and 4% paraformaldehyde (PFA) (v/v 1:1) were added into wells to fix cells for 15 min at room temperature. PFA was removed by centrifugation (5 min, 3000 rpm, 4° C.) and cells were resuspended with 5 mM EDTA in D-PBS. Then the cellular A680-associated fluorescence signal was quantified using an Attune™ NxT flow cytometer (Thermo Fisher Scientific) equipped with Attune™ NxT v3.1.2. Experimental data (experimental triplicates) were fitted with GraphPad Prism® software using a nonlinear fit to determine the apparent Ki inhibition constants.

[6] = target: T2, human transferrin receptor (hTfR) fused …; assay: flow cytometry on CHO-hTfR-EGFP cells, 1 hr at 4 C, anti-6His + Alexa647 anti-mouse; ratio to background fluorescence
Protocol: FIGS. 15A-15H: In vitro gene silencing activity of VHH-siGFPst1 bioconjugates. […] CHO-hTfR-EGFP cells were incubated 1 hr at 4° C. with various concentrations of the indicated compounds. Detection of VHHs was performed using a primary mouse anti-6His (1/1000) and an Alexa647-conjugated anti-mouse secondary antibody (1/400). Measurements of cell-surface signal associated to VHH were performed using flow cytometry. The results are expressed as the ratio of Alexa647-associated fluorescence intensity of test compounds to that of background fluorescence. […] The total fluorescence associated to the EGFP protein was then quantified using flow cytometry and rationalized to that of untreated (control) cells (set at 100%) *** p≤0.001. […] The total fluorescence associated with the EGFP protein was then quantified using flow cytometry and rationalized to that of untreated (control) cells (set at 100%). […] CHO-hTfR-EGFP cells were incubated with the indicated compounds at 1 μM during 120 hrs at 37° C. Data were processed and analyzed as described in (B). *** p≤0.001 vs. untreated cells. […] The total fluorescence associated with the EGFP protein was then quantified using flow cytometry and rationalized to that of untreated (control) cells (set at 100%).

[7] = target: T6, mouse TfR ectodomain fused to a mouse IgG1 Fc fragment (mouse, UniProt Q62351 89-763); assay: SPR, kinetic
T6 construct: extracellular domain; not shown: mouse IgG1 Fc fragment
Method in brief: as §1

[8] = target: T1, human TfR ectodomain fused to a mouse …; assay: SPR, at equilibrium
Method in brief: as §1

[9] = target: T6, mouse TfR ectodomain fused to a mouse …; assay: SPR, at equilibrium
Method in brief: as §1

[10] = target: T5, murine TfR expressed by murine …; assay: competition with the fluorescent reference VHH on Neuro-2a cells as in FIG. 25; Ki/app on mTfR
Protocol: as §3

T1 sequence (P02786 89-760): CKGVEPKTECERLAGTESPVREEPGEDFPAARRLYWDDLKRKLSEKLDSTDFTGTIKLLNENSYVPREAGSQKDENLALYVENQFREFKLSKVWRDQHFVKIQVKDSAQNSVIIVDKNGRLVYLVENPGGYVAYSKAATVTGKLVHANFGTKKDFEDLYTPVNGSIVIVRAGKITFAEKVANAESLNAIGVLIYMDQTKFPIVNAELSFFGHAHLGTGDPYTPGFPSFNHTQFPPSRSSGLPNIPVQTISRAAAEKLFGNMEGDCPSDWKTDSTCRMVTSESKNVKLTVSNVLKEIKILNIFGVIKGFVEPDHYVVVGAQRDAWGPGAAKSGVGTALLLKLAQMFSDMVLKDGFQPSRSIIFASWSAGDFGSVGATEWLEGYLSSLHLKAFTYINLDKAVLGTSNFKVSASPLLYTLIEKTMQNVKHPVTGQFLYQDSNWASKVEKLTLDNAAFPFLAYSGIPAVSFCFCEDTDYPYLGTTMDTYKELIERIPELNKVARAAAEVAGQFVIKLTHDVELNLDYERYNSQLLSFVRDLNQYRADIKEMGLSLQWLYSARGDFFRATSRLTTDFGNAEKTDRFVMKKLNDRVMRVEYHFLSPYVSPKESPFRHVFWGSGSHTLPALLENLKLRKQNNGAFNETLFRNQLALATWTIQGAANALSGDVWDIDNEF
T2 sequence (P02786 whole entry, the tested form may be a part): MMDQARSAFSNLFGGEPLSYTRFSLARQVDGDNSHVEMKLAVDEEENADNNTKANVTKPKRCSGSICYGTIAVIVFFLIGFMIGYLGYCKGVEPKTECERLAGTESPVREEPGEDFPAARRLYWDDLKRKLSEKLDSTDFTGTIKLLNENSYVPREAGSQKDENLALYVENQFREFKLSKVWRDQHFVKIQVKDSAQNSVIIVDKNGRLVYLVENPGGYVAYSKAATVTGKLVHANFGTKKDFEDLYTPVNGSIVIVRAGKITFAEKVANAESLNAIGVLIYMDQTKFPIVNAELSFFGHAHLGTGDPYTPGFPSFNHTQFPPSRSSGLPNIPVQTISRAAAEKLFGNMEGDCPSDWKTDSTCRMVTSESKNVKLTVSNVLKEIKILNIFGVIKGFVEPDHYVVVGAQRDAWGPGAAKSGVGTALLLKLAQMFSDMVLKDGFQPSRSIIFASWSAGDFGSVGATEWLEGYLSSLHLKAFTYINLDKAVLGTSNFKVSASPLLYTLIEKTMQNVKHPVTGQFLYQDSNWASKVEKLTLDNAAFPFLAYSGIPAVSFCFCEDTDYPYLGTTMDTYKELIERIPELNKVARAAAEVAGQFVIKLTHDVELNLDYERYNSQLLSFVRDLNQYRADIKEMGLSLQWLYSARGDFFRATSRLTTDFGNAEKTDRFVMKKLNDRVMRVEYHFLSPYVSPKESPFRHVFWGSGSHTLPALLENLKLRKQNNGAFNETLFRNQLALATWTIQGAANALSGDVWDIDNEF
T6 sequence (Q62351 89-763): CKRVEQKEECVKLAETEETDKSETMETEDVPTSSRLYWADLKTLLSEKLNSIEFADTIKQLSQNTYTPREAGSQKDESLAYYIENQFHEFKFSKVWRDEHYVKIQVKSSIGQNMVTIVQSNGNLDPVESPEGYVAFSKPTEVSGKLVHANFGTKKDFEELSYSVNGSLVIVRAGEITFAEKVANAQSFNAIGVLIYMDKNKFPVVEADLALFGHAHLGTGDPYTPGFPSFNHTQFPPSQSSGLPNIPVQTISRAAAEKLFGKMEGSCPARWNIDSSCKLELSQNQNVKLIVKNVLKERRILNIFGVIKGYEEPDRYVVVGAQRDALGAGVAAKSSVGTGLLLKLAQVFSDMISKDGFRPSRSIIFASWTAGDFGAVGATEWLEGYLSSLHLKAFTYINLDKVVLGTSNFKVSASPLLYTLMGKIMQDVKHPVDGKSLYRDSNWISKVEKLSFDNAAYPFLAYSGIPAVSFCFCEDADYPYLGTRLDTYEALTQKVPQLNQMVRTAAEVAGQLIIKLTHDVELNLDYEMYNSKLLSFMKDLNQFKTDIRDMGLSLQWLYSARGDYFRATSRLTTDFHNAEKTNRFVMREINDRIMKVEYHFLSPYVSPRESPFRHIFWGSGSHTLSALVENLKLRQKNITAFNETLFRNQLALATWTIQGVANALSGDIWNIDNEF
T3 sequence (Q62351 whole entry, the tested form may be a part): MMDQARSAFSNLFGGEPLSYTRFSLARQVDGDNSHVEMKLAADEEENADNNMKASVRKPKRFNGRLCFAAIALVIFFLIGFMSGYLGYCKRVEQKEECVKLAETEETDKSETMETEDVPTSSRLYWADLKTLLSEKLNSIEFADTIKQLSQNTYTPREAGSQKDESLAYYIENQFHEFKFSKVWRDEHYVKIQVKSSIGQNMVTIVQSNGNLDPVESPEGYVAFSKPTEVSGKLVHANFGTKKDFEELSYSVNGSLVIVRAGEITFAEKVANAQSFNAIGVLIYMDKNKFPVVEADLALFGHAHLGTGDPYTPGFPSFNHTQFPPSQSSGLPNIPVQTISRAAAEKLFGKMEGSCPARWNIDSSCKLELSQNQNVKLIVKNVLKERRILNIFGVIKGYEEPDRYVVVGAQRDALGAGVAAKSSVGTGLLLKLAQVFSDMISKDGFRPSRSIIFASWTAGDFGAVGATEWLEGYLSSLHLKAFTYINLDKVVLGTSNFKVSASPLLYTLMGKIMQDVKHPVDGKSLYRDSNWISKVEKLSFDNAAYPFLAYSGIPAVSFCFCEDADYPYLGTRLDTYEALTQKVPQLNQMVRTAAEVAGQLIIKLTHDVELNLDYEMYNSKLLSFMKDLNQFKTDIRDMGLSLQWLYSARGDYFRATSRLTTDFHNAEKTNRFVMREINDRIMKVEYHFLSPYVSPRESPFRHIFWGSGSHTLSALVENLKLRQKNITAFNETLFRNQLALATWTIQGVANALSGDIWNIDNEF
T5 sequence (Q62351 whole entry): as the sequence (Q62351 whole entry, the tested form may be a part) above

| Binder | Kd [1] | koff [1] | kon [1] | Kd [2] | Kd [3] | Kd [4] | Ki [5] | Ki [10] | other results |
| --- | --- | --- | --- | --- | --- | --- | --- | --- | --- |
| VHH B-siGFPst1 bioconjugate (VHH, siGFPst1 siRNA linked to the Gln of the C-terminal Q-tag, not shown: C-terminal tag with His tag and Q-tag) VHH: EVQLVESGGGVVQPGGSLRLSCAASGEIFSINFMRWYRQAPGKQREWVAGFTRDGSTNYPDSAKGRFTISRDNAKNTVYLQIDSLKPEDTAVYYCYMLDTWGQGTQVTVSS |  |  |  |  |  |  |  |  | EC50 (read off the curve) [6]: ~3 nM |
| C5-ΔHis-siSOD1m (VHH, conjugated to the siSOD1m siRNA duplex through a linker; site and tag not given for this conjugate ; Conjugated at a C-terminal tag (not given) through a linker to the chemically modified siSOD1m duplex (SEQ ID NOs 465/466)., Member of the group m173; also called VHH-deltaHis-siSOD1m wherein VHH is C5; not shown: The C-terminal conjugation tag of the 'ΔHis' form, which the text never defines) VHH: EVQLVESGGGVVQPGGSLKLSCVASGTDFSINFIRWYRQAPGKQREFVAGFTATGNTNYADSMKGRFTISRDNTKNAVYLQIDSLKPEDTAVYYCYMLDKWGQGTQVTVSS |  |  |  |  |  |  |  | 137 nM |  |
| C5-Thiol-Mal-siSOD1m (VHH, chain 1 pos 117: free Cys of the tag coupled by thiol-maleimide chemistry to the maleimide-functionalised siSOD1m duplex (SEQ ID NOs 465/466), written C, Member of the group m173; also called VHH-thiol-Mal-siSOD1m wherein VHH is C5) VHH: EVQLVESGGGVVQPGGSLKLSCVASGTDFSINFIRWYRQAPGKQREFVAGFTATGNTNYADSMKGRFTISRDNTKNAVYLQIDSLKPEDTAVYYCYMLDKWGQGTQVTVSS |  |  |  |  |  |  |  | 164 nM |  |
| C5V7-siSOD1m (VHH, conjugated to the siSOD1m siRNA duplex through a linker; site and tag not given for this conjugate ; VHH conjugated through a C-terminal tag and a stable click linker to the 3' end of the sense strand of the siSOD1m siRNA duplex (SEQ ID NO 465/466). The letters cannot carry this., Member of the group m173; not shown: C-terminal tag/linker that carries the siRNA) VHH: EVQLVESGGGVVQPGGSLKLSCVASGTDFSINFIRWYRQAPGKQREFVAGFTATGNTNYADSMKGRFTISRDNTKNAVYLQIDSLKPEDTAVYYCYMADKWGQGTQVTVSS |  |  |  |  |  |  |  | 10100 nM |  |

Continued, in another order:

| Kd [1] | koff [1] | kon [1] | Kd [2] | Kd [3] | Kd [4] | Ki [5] | Ki [10] | Binder | other results |
| --- | --- | --- | --- | --- | --- | --- | --- | --- | --- |
| 0.212 nM | 9.49e-05 s⁻¹ | 444000 M⁻¹ s⁻¹ | 4.1 nM | 2.8 nM | 1.9 nM | 43 nM |  | B8^h1 (VHH) VHH: EVQLVESGGGVVQPGGSLRLSCAASGEIFSINFMRWYRQAPGKGLEWVAGFTRDGSTNYPDSVKGRFTISRDNAKNTVYLQMNSLRPEDTAVYYCYMLDTWGQGTQVTVSS |  |
| 30.9 nM | 0.013 s⁻¹ | 462000 M⁻¹ s⁻¹ | 11 nM | 834 nM | 957 nM | 1480 nM |  | C5^h18 (VHH) VHH: EVQLVESGGGVVQPGGSLKLSCVASGTDFSINFIRWYRQAPGKGLEFVAGFTATGNTNYADSVKGRFTISRDNAKNTLYLQMNSLRPEDTAVYYCYMLDKWGQGTQVTVSS | Kd [7]: 336 nM; koff [7]: 0.235 s⁻¹; kon [7]: 816000 M⁻¹ s⁻¹; Kd [8]: 27.3 nM; Kd [9]: 300 nM |
| 0.876 nM | 0.000487 s⁻¹ | 555000 M⁻¹ s⁻¹ | 3.2 nM | 259 nM | 13 nM | 834 nM |  | VHH A1 (C5^V1) (VHH) VHH: EVQLVESGGGVVQPGGSLKLSCVASGADFSINFIRWYRQAPGKQREFVAGFTATGNTNYADSMKGRFTISRDNTKNAVYLQIDSLKPEDTAVYYCYMLDKWGQGTQVTVSS | Kd [7]: 244 nM; koff [7]: 0.12 s⁻¹; kon [7]: 546000 M⁻¹ s⁻¹; Kd [9]: 228 nM |
